# Measured values published in paper PMC3042717.
# Target: GST-VP16 (aa 452-490) (herpes simplex virus) (UniProt P06492)
# Assay: pull-down
# Sequence of UniProt P06492 (P06492 452-490): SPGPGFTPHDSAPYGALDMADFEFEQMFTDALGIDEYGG
substance,measurement,value
"wild-type p300 over-expressed in A293 cells, Q09472 1-2414",fold more efficient pull-down than of p300ΔC,5 fold
